In PMC10294536:

Assays:
Details in all cases: reference: EGFP-HURP wild type; sites S725
GP73 = GP73 (UniProt Q8NBJ4); experiment: co-IP of EGFP-HURP with GP73
GM130 = GM130 (UniProt Q08379); experiment: co-IP of EGFP-HURP with GM130
GRASP65 = GRASP65 (UniProt Q9BQQ3); experiment: co-IP of EGFP-HURP with GRASP65

Measured: binding against the reference

HURP (from UniProt Q15398) EGFP-HURP 725A
lost: all assays above
